This is an account of results in US20260078342A1.

This experiment addresses CD16 (FcγRIIIa/CD16a), high affinity variant with valine at amino acid 176, expressed on haNK003 cells (human) (UniProt P08637). Briefly: cell-based or functional assay.
UniProt P08637, sequence (P08637 other isoform, or with tags, fused parts or gaps mutant limits assumed): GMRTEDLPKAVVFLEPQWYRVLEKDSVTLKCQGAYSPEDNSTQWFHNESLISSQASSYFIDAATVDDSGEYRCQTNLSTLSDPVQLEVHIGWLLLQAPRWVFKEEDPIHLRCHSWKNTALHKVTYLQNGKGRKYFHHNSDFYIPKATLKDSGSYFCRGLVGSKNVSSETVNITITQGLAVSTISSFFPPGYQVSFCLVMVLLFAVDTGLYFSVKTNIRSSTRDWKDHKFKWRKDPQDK

For the substance Rituximab (antibody), the ADCC assay (specific lysis), haNK003 at 1:1 E:T Ratio with Rituxan (3.3 µg/mL) vs DOHH2 was found to be 52.8%.
